{"source": "patent US9550817B2", "about": "“Men1 gene for diagnosis and treatment of diabetes” (THE TRUSTEES OF THE UNIVERSITY OF PENNSYLVANIA, priority 2006, dated 2017)", "target": "T1, menin (Homo sapiens, UniProt O00255)", "T1 construct": "made in house; host or cells: E. coli", "T1 sequence (O00255 1-610)": "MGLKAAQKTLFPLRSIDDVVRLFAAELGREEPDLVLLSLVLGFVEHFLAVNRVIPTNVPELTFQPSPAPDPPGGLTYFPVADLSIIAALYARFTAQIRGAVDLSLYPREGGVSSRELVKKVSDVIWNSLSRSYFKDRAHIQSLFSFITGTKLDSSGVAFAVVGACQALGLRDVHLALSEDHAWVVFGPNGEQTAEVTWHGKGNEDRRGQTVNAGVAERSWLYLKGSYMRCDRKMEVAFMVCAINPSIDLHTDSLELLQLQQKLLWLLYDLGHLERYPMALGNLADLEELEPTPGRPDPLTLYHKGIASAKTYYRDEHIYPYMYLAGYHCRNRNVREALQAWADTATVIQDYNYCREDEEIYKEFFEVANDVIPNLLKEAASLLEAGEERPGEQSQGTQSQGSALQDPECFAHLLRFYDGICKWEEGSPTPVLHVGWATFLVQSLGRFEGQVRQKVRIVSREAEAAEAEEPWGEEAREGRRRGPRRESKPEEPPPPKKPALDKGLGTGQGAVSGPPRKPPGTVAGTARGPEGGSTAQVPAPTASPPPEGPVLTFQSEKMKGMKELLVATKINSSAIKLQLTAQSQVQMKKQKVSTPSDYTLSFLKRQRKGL", "assay": "Pull-down of menin by biotinylated peptides on streptavidin-agarose beads, Western blot with anti-menin antibody", "assay_type": "binding", "conditions": "menin expressed in and purified from E. coli", "description": "Biotinylated peptides were synthesized at the Peptide synthesis facility at Yale University, and loaded to streptavidin-agraose beads (Invitrogen, Inc), and incubated with menin expressed in and purified from E. coli. After multiple washings, the beads were analyzed via Western blot analysis using an anti-menin antibody.\nBiotinylated peptides were synthesized, loaded to streptavidin-agraose beads (Invitrogen Inc), and incubated with menin expressed in and purified from E. coli. After multiple washings, the beads were analyzed via Western blot analysis using an anti-menin antibody. […] Especially, the peptide designated the sequence […] (SEQ ID No. 7)."}
{"sequence": "MAHSCRWRFPGSGSCRWRFP (Human) [SEQ ID No. 7, short synthetic peptide from the N-terminus of MLL]", "values": [{"measurement": "binding of peptide to menin in vitro (FIG. 12)", "result": "able to react with Men1"}]}
